Experimental data reported in patent US20100169988A1 (published 2010).

B1: Gamma enolase (2-phospho-D-glycerate hydrolyase) (Neural enolase) (enzyme, mouse, UniProt P17183 2-434, looked up)
chain: SIEKIWAREILDSRGNPTVEVDLYTAKGLFRAAVPSGASTGIYEALELRDGDKQRYLGKGVLKAVDHINSRIAPALISSGISVVEQEKLDNLMLELDGTENKSKFGANAILGVSLAVCKAGAAERDLPLYRHIAQLAGNSDLILPVPAFNVINGGSHAGNKLAMQEFMILPVGAESFRDAMRLGAEVYHTLKGVIKDKYGKDATNVGDEGGFAPNILENSEALELVKEAIDKAGYTEKMVIGMDVAASEFYRDGKYDLDFKSPADPSRYITGDQLGALYQDFVRNYPVVSIEDPFDQDDWAAWSKFTANVGIQIVGDDLTVTNPKRIERAVEEKACNCLLLKVNQIGSVTEAIQACKLAQENGWGVMVSHRSGETEDTFIADLVVGLCTGQIKTGAPCRSERLAKYNQLMRIEEELGDEARFAGHNFRNPSVL
notes: also called neuron-specific enolase
B2: SH3-containing GRB2-like protein 1 (SH3 domain protein 2B) (SH3p8) (other, mouse, UniProt Q62419 1-368, looked up)
chain: MSVAGLKKQFYKASQLVSEKVGGAEGTKLDDDFKDMEKKVDVTSKAVAEVLVRTIEYLQPNPASRAKLTMLNTVSKIRGQVKNPGYPQSEGLLGECMVRHGKELGGESNFGDALLDAGESMKRLAEVKDSLDIEVKQNFIDPLQNLCDKDLKEIQHHLKKLEGRRLDFDYKKKRQGKIPDEELRQALEKFEESKEVAETSMHNLLETDIEQVSQLSALVDAQLDYHRQAVQILEELADKLKRRVREASSRPKREFKPRPREPFELGELEQPNGGFPCAPAPKITASSSFRSSDKPIRMPSKSMPPLDQPSCKALYDFEPENDGELGFREGDLITLTNQIDENWYEGMLHGQSGFFPLSYVQVLVPLPQ
notes: also called SH3G1_MOUSE
B3: Vesicle-fusing ATPase (EC 3.6.4.6) (Vesicular-fusion protein NSF) (N-ethylmaleimide sensitive fusion protein) (enzyme, mouse, UniProt P46460 1-744, looked up)
chain: MAGRTMQAARCPTDELSLSNCAVVNEKDFQSGQHVMVRTSPNHKYIFTLRTHPSVVPGCIAFSLPQRKWAGLSIGQDIEVALYSFDKAKQCIGTMTIEIDFLQKKNIDSNPYDTDKMAAEFIQQFNNQAFSVGQQLVFSFNDKLFGLLVKDIEAMDPSILKGEPASGKRQKIEVGLVVGNSQVAFEKAENSSLNLIGKAKTKENRQSIINPDWNFEKMGIGGLDKEFSDIFRRAFASRVFPPEIVEQMGCKHVKGILLYGPPGCGKTLLARQIGKMLNAREPKVVNGPEILNKYVGESEANIRKLFADAEEEQRRLGANSGLHIIIFDEIDAICKQRGSMAGSTGVHDTVVNQLLSKIDGVEQLNNILVIGMTNRPDLIDEALLRPGRLEVKMEIGLPDEKGRLQILHIHTARMRGHQLLSADVDIKELAVETKNFSGAELEGLVRAAQSTAMNRHIKASTKVEVDMEKAESLQVTRGDFLASLENDIKPAFGTNQEDYASYIMNGIIKWGDPVTRVLDDGELLVQQTKNSDRTPLVSVLLEGPPHSGKTALAAKIAEESNFPFIKICSPDKMIGFSETAKCQAMKKIFDDAYKSQLSCVVVDDIERLLDYVPIGPRFSNLVLQALLVLLKKAPPQGRKLLIIGTTSRKDVLQEMEMLNAFSTTIHVPNIATGEQLLEALELLGNFKDKERTTIAQQVKGKKVWIGIKKLLMLIEMSLQMDPEYRVRKFLALMREEGASPLDFD
B4: 14-3-3 protein gamma (other, mouse, UniProt P61982 1-247, looked up)
chain: MVDREQLVQKARLAEQAERYDDMAAAMKNVTELNEPLSNEERNLLSVAYKNVVGARRSSWRVISSIEQKTSADGNEKKIEMVRAYREKIEKELEAVCQDVLSLLDNYLIKNCSETQYESKVFYLKMKGDYYRYLAEVATGEKRATVVESSEKAYSEAHEISKEHMQPTHPIRLGLALNYSVFYYEIQNAPEQACHLAKTAFDDAIAELDTLNEDSYKDSTLIMQLLRDNLTLWTSDQQDDDGGEGNN
notes: also called 14-3-3 γ
B5: Aconitate hydratase; mitochondrial precursor (Citrate hydro-lyase) (enzyme, mouse, UniProt Q99KI0 28-780, looked up)
chain: QRAKVAMSHFEPSEYIRYDLLEKNINIVRKRLNRPLTLSEKIVYGHLDDPANQEIERGKTYLRLRPDRVAMQDATAQMAMLQFISSGLPKVAVPSTIHCDHLIEAQVGGEKDLRRAKDINQEVYNFLATAGAKYGVGFWRPGSGIIHQIILENYAYPGVLLIGTDSHTPNGGGLGGICIGVGGADAVDVMAGIPWELKCPKVIGVKLTGSLSGWTSPKDVILKVAGILTVKGGTGAIVEYHGPGVDSISCTGMATICNMGAEIGATTSVFPYNHRMKKYLSKTGRTDIANLAEEFKDHLVPDPGCQYDQVIEINLNELKPHINGPFTPDLAHPVADVGTVAEKEGWPLDIRVGLIGSCTNSSYEDMGRSAAVAKQALAHGLKCKSQFTITPGSEQIRATIERDGYAQILRDVGGIVLANACGPCIGQWDRKDIKKGEKNTIVTSYNRNFTGRNDANPETHAFVTSPEIVTALAIAGTLKFNPETDFLTGKDGKKFKLEAPDADELPRSDFDPGQDTYQHPPKDSSGQRVDVSPTSQRLQLLEPFDKWDGKDLEDLQILIKVKGKCTTDHISAAGPWLKFRGHLDNISNNLLIGAINIENGKANSVRNAVTQEFGPVPDTARYYKKHGIRWVVIGDENYGEGSSREHAALEPRHLGGRAIITKSFARIHETNLKKQGLLPLTFADPSDYNKIHPVDKLTIQGLKDFAPGKPLKCVIKHPNGTQETILLNHTFNETQIEWFRAGSALNRMKELQQ
notes: also called Aconitase
B6: Guanine nucleotide-binding protein G(o); alpha subunit 1 (other, mouse, UniProt P18872 2-354, looked up)
chain: GCTLSAEERAALERSKAIEKNLKEDGISAAKDVKLLLLGAGESGKSTIVKQMKIIHEDGFSGEDVKQYKPVVYSNTIQSLAAIVRAMDTLGVEYGDKERKTDSKMVCDVVSRMEDTEPFSAELLSAMMRLWGDSGIQECFNRSREYQLNDSAKYYLDSLDRIGAGDYQPTEQDILRTRVKTTGIVETHFTFKNLHFRLFDVGGQRSERKKWIHCFEDVTAIIFCVALSGYDQVLHEDETTNRMHESLMLFDSICNNKFFIDTSIILFLNKKDLFGEKIKKSPLTICFPEYPGSNTYEDAAAYIQTQFESKNRSPNKEIYCHMTCATDTNNIQVVFDAVTDIIIANNLRGCGLY
notes: also called GNAO1_MOUSE
B7: 14-3-3 protein zeta/delta (Protein kinase C inhibitor protein-1) (KCIP-1) (SEZ-2) (other, mouse, UniProt P63101 1-245, looked up)
chain: MDKNELVQKAKLAEQAERYDDMAACMKSVTEQGAELSNEERNLLSVAYKNVVGARRSSWRVVSSIEQKTEGAEKKQQMAREYREKIETELRDICNDVLSLLEKFLIPNASQPESKVFYLKMKGDYYRYLAEVAAGDDKKGIVDQSQQAYQEAFEISKKEMQPTHPIRLGLALNFSVFYYEILNSPEKACSLAKTAFDEAIAELDTLSEESYKDSTLIMQLLRDNLTLWTSDTQGDEAEAGEGGEN
B8: 14-3-3 protein epsilon (14-3-3E) (other, mouse, UniProt P62259 1-255, looked up)
chain: MDDREDLVYQAKLAEQAERYDEMVESMKKVAGMDVELTVEERNLLSVAYKNVIGARRASWRIISSIEQKEENKGGEDKLKMIREYRQMVETELKLICCDILDVLDKHLIPAANTGESKVFYYKMKGDYHRYLAEFATGNDRKEAAENSLVAYKAASDIAMTELPPTHPIRLGLALNFSVFYYEILNSPDRACRLAKAAFDDAIAELDTLSEESYKDSTLIMQLLRDNLTLWTSDMQGDGEEQNKEALQDVEDENQ

What was measured:
APP-TAP-AICD [1] = target: T1, APP-TAP-AICD (human, UniProt P05067 18-695); assay: streptavidin purification of APP-TAP-AICD from brain homogenate; LTQ-FT semiquantitative method, transgenic mouse 75 vs control mouse 72
APP-TAP-AICD [2] = target: T1, APP-TAP-AICD; assay: streptavidin purification of APP-TAP-AICD from brain homogenate; iTRAQ 116/114, transgenic mouse 75 vs control mouse 72; MALDI-TOF/TOF;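 also: relative protein abundance in the transgenic versus control pull-down, limited to proteins with high quality scores and above-average enrichment, without full normalization across the whole measurement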
Source text: (§1) Shown are all proteins that have high quality scores and are enriched above average in the m75 sample. Purified bait protein is given underlined. Other already known interaction partners of AICD or putatively biologically relevant proteins are given in bold. As full normalization over the entire measurement was not possible through the GPS explorer software suite, this conservative estimate had to be taken for determining the enriched vs. the non-enriched proteins. […] Ranking is in order of abundance ratio.

APP-TAP-AICD [3] = target: T2, APP-TAP-AICD (human, UniProt P05067-4 18-695); assay: as above
T2 construct: Bait purified from brain homogenate of hemizygous transgenic mice via streptavidin; full-length APP and cleaved C-terminal stubs are isolated; also called TAP-tagged full-length human APP
Source text: as §1

| probability that this protein is enriched (APP-TAP-AICD [1]) | iTRAQ ratio (APP-TAP-AICD [2]) | iTRAQ ratio (APP-TAP-AICD [3]) | Binder |
| --- | --- | --- | --- |
| 1 | 4.08 | – | B1 |
| 1 | 3.64 | – | B2 |
| 0.86 | 4 | – | B3 |
| 0.83 | 4.28 | – | B4 |
| 1 | 4.53 | – | B5 |
| – | – | 3.38 | B6 |
| 0.83 | 4.51 | – | B7 |
| 1 | 3.94 | – | B8 |
